From US10400249B2, “HPPD variants and methods of use” (priority 2014, dated 2019)
Numbering of substitutions follows the chain as printed. Names and notes keep the numbering of the source.

B1: K255: PfHPPD variant P215A, E335P, G336F, A340E (protein)
chain: MADLYENPMGLMGFEFIEFASPTPGTLEPIFEIMGFTKVATHRSKNVHLYRQGEINLILNNEPNSIASYFAAEHGPSVCGMAFRVKDSQKAYNRALELGAQPIHIDTGPMELNLPAIKGIGGAPLYLIDRFGEGSSIYDIDFVYLEGVERNPVGAGLKVIDHLTHNVYRGRMVYWANFYEKLFNFREARYFDIKGEYTGLTSKAMSAPDGMIRIALNEESSKGAGQIEEFLMQFNGEGIQHVAFLTDDLVKTWDALKKIGMRFMTAPPDTYYEMLEGRLPDHGEPVDQLQARGILLDGSSVEGDKRLLLQIFSETLMGPVFFEFIQRKGDDGFGPFNFKELFESIERDQVRRGVLTAD
modifications: HPPD variant - K255
notes: PfHPPD variant P215A, E335P, G336F, A340E
B2: PfG336F: reference PfHPPD mutant G336F (protein)
chain: B1 chain with A215P, P335E, E340A
modifications: HPPD variant - Pf336F
B3: K325: PfHPPD variant A188G, R189C, P215N, E335P, G336F, A340E (protein)
chain: B1 chain with A188G, R189C, A215N
modifications: HPPD variant - K325
notes: PfHPPD variant A188G, R189C, P215N, E335P, G336F, A340E
B4: K303: PfHPPD variant L200I, P215L, E335P, G336F, A340E (protein)
chain: B1 chain with L200I, A215L
modifications: HPPD variant - K303
notes: PfHPPD variant L200I, P215L, E335P, G336F, A340E
B5: K300: PfHPPD variant P215L, E335P, G336F, A340G (protein)
chain: B1 chain with A215L, E340G
modifications: HPPD variant - K300
notes: PfHPPD variant P215L, E335P, G336F, A340G
B6: K357: PfHPPD variant A188G, R189C, E335P, G336F, A340E (protein)
chain: B1 chain with A188G, R189C, A215P
modifications: HPPD variant - K357
notes: PfHPPD variant A188G, R189C, E335P, G336F, A340E
B7: K258: PfHPPD variant P215N, E335P, G336F, A340E (protein)
chain: B1 chain with A215N
modifications: HPPD variant - K258
notes: PfHPPD variant P215N, E335P, G336F, A340E
B8: K360: PfHPPD variant L200I, E335P, G336F, A340E (protein)
chain: B1 chain with L200I, A215P
modifications: HPPD variant - K360
notes: PfHPPD variant L200I, E335P, G336F, A340E
B9: K250: PfHPPD variant A188G, R189C, P215L, E335P, G336F, A340E (protein)
chain: B1 chain with A188G, R189C, A215L
modifications: HPPD variant - K250
notes: PfHPPD variant A188G, R189C, P215L, E335P, G336F, A340E
B10: K304: PfHPPD variant L200M, P215L, E335P, G336F, A340E (protein)
chain: B1 chain with L200M, A215L
modifications: HPPD variant - K304
notes: PfHPPD variant L200M, P215L, E335P, G336F, A340E
B11: K306: PfHPPD variant P215L, Q226H, E335P, G336F, A340E (protein)
chain: B1 chain with A215L, Q226H
modifications: HPPD variant - K306
notes: PfHPPD variant P215L, Q226H, E335P, G336F, A340E
B12: K363: PfHPPD variant Q226H, E335P, G336F, A340E (protein)
chain: B1 chain with A215P, Q226H
modifications: HPPD variant - K363
notes: PfHPPD variant Q226H, E335P, G336F, A340E
B13: K361: PfHPPD variant L200M, E335P, G336F, A340E (protein)
chain: B1 chain with L200M, A215P
modifications: HPPD variant - K361
notes: PfHPPD variant L200M, E335P, G336F, A340E

Experiments:
[1] = tested on: Pseudomonas fluorescens HPPD protein; test: OD assay: HPPD activity and pI50 from HPP remaining after derivatisation with DNP; type: biochemical; conditions: for Activity DeltaE/24 min μg Protein: HPPD enzyme activity of the clone; for tolerance (pI50) Cmpd. 2: inhibitor Cmpd. 2; for tolerance (pI50) DKN: inhibitor diketonitrile (DKN), negative log of molar concentration; for tolerance (pI50) MST: inhibitor mesotrione (MST); for tolerance (pI50) TBT: inhibitor tembotrione (TBT)
Description: (§1) HPPD proteins were produced and purified as described in WO2011/076882. The activity of HPPD proteins in absence or presence of HPPD inhibitors was determined using either the so called OD assay or the HGD assay.
(§2) • a) The OD assay: The HPPD activity was determined colourimetrically by measuring the amount of HPP remaining in the assay mixture at the end of the incubation period after derivatisation of HPP with 2,4-dinitrophenylhydrazine (DNP) to form an amber-brown colored 2,4-dinitrophenylhydrazone under alkaline conditions. The assay was carried out at room temperature in Greiner F-bottom 96 well microplates. The assay mixture contained 50 mM Tris-HCl pH 7.8, 0.5 mM HPP, 10 mM ascorbate, 650 units of catalase and appropriate amounts of purified HPPD enzyme in a total assay volume of 100 μl. The reaction was started by the addition of enzyme. After an incubation time of 24 minutes, the reaction was stopped by the addition of 50 μl of a solution of 0.04% DNP dissolved in 3.8 N HCl. After a further 15-minute incubation period 100 μl of a 5 N KOH solution was added to the reaction mixture and the amount of unconsumed HPP was measured photometrically at 405 nm. Enzyme activity was calculated as the difference in E405 between assays lacking enzyme (negative control) and the enzyme containing assays (ΔE405=E405(negative control)−E405). Enzyme activity (nmol substrate consumed per min) was calculated from a calibration curve generated from HPP. pI50-values (the negative log value of the concentration of inhibitor necessary to inhibit 50% of the enzyme activity in molar concentration were determined from dose-response plots of HPPD activity versus inhibitor concentration tested (5.0×10^−6, 1.0×10^−5, 2.5×10^−5, 4.0×10^−5, 7.0×10^−5, 1.0×10^−4, 2.0×10^−4 and 5.0×10^−4M) using the 4 Parameter Logistic Model or Sigmoidal Dose-Response Model of the ID Business Solutions Ltd. XLfit software suite. The result “>5.6” means that the inhibition at the lowest inhibitor concentration tested was higher than 85% and the pI50-value could therefore not be precisely calculated within in the range of concentration of inhibitor tested. The result “<2.5” means that the inhibition at the highest inhibitor concentration tested was lower than 25% and the pI50-value could therefore not be precisely calculated within in the range of concentration of inhibitor tested. “n.d.” means not determined. • b) The HGD assay: With the HGD assay HPPD activity was measured at room temperature by adding appropriate amounts of HPPD to a solution of 200 mM Tris-HCl pH 7.6, 10 mM ascorbate, 20 μM FeSO4, 650 units of catalase, 8 μg HGA dioxygenase (HGA: homogentisate) and 600 μM HPP in a total volume of 1 ml. Initial reaction rates in the absence or presence of inhibitors were determined from the increase in absorbance at 318 nm due to the formation of maleylacetoacetate (ε318=11,900 M−1 cm-1). pI50-values (the negative log value of the concentration of inhibitor necessary to inhibit 50% of the enzyme activity in molar concentration were determined from dose-response plots of HPPD activity versus inhibitor concentration tested using the 4 Parameter Logistic Model or Sigmoidal Dose-Response Model of the ID Business Solutions Ltd. XLfit software suite. Due to the UV absorption of the HPPD inhibitors tested, inhibitor concentrations >100 μM could not be tested. The result “<4” means that the inhibition at 100 μM inhibitor concentration was lower than 25% and the pI50-value could therefore not be precisely calculated within in the range of concentration of inhibitor tested. “n.d.” means not determined. The HGD assay allowed to continuously follow HPPD-catalyzed HGA formation over time was therefore used to determine the inhibition type of the HPPD inhibitors tested. […] When in the presence of an inhibitor the HPPD activity was inhibited but the inhibition was found not to […] in a time-dependent manner, the inhibitor was called reversible (abbreviation “rev”). […]

[2] = tested on: Pseudomonas fluorescens HPPD protein; test: HGD assay: HPPD activity coupled to HGA dioxygenase, pI50 and type of inhibition (time-course); type: biochemical; conditions: for pI50-values of Cmpd. 2: assay not given, follows the time-course analysis (HGD assay); for tolerance (pI50) Cmpd. 2: inhibitor Cmpd. 2
Description: as §1, §2

Row | Molecule | Activity DeltaE/24 min μg Protein [1] | tolerance (pI50) Cmpd. 2 [1] | tolerance (pI50) DKN [1] | tolerance (pI50) MST [1] | tolerance (pI50) TBT [1] | mechanism of inhibition by Cmpd. 2, time-course of inhibition [2] | tolerance (pI50) DKN ([2]; inhibitor diketonitrile (DKN), HGD assay) | tolerance (pI50) MST ([2]; inhibitor mesotrione (MST), HGD assay) | tolerance (pI50) TBT ([2]; inhibitor tembotrione (TBT), HGD assay) | pI50-values of Cmpd. 2 [2] | tolerance (pI50) Cmpd. 2 ([2]; HGD assay)
1 | B1 | 0.09 DeltaE/24 min μg Protein | 5.0 | 3.0 | 3.7 | 4.5 | fully reversible inhibitor |  |  |  |  | 
2 | B2 | 0.66 DeltaE/24 min μg Protein |  | 5.3 | 5.6 |  |  | 5.1 | 5.1 | 5.9 |  | 
3 | B3 | 0.41 DeltaE/24 min μg Protein | 5.6 | <2.5 | 3.6 | 4.6 | fully reversible inhibitor |  |  |  | 5.5 | 
4 | B4 | 0.008 DeltaE/24 min μg Protein | 4.6 |  | 3.2 | 4.2 | fully reversible inhibitor |  |  |  | 5.0 | 
5 | B5 | 0.01 DeltaE/24 min μg Protein | 3.8 | <2.5 | <2.5 | 3.1 | fully reversible inhibitor |  |  |  |  | 4.3
6 | B6 | 0.47 DeltaE/24 min μg Protein | 5.4 | 3.5 | 4.1 | 5.3 | fully reversible inhibitor |  |  |  | 5.1 | 
7 | B7 | 0.15 DeltaE/24 min μg Protein | 5.4 | <2.5 | 3.4 | 4.4 | fully reversible inhibitor |  |  |  |  | 
8 | B8 | 0.28 DeltaE/24 min μg Protein | 5.3 | 3.6 | 4.3 | 5.3 | fully reversible inhibitor |  |  |  | 5.5 | 
9 | B9 | 0.07 DeltaE/24 min μg Protein | 4.6 | <2.5 | 3.0 | 3.8 | fully reversible inhibitor |  |  |  | < 4 | 
10 | B10 | 0.011 DeltaE/24 min μg Protein | 4.6 |  | 3.2 | 4.2 | fully reversible inhibitor |  |  |  | 4.7 | 
11 | B11 | 0.01 DeltaE/24 min μg Protein | 5.1 | <2.5 | 3.7 | 4.8 | fully reversible inhibitor |  |  |  |  | 4.9
12 | B12 | 0.20 DeltaE/24 min μg Protein | 5.4 | 3.8 | 4.3 | 5.5 | fully reversible inhibitor |  |  |  |  | 
13 | B13 | 0.21 DeltaE/24 min μg Protein | 5.2 | 3.4 | 4.0 | 5.1 | fully reversible inhibitor |  |  |  | 5.3 | 
